Laboratory results taken from US20120208867, “HMGB1 BINDING NUCLEIC ACID MOLECULE AND APPLICATIONS THEREOF” (published 2012).

Columns and labels:
His-tagged HMGB1 [1] = target: T1, His-tagged HMGB1 (UniProt P09429 P09429:1-215); experiment: SPR; 160 nM protein; conditions: tags: N-terminal His-tag
Description: (§1) First, a sensor chip (trade name: Sensor Chip SA, manufactured by GE Heathcare) specially made for a BIACORE was set on the aforementioned BLACORE (registered trademark) X. Biotinylate deoxythymidine (5 μmol/L) was injected into the flow cell 2 of the aforementioned sensor chip using a running buffer and subjected to binding until the signal intensity (RU: resonance unit) reached about 1000 RU. For the aforementioned biotinylated deoxythymidine, 20-base-long deoxythymidine in which the 5′ end was biotinylated was used. Then, 10 μg/mL of an RNA aptamer was injected at a flow rate of 20 μL/min for 1 min into the aforementioned flow cells 1 and 2 of the aforementioned chip using a running buffer and subjected to binding until the signal intensity reached about 1000 RU. Next, 675 nmol/L of the aforementioned His-tag-added HMGB1 was injected at a flow rate of 20 μL/min for 30 sec using the aforementioned running buffer, and under the same conditions the aforementioned running buffer was allowed to flow continuously for washing. Simultaneously with the injection of the aforementioned His-tag-added HMGB1 and washing with the aforementioned running buffer, signal intensity was measured. The aforementioned running buffer was composed of 20 mmol/L of HEPES, 500 mmol/L of NaCl, 0.1 mmol/L of MgCl₂, and 0.1% Triton X-100 (registered trademark), with the pH thereof being 7.2. As a blocking agent for suppressing nonspecific binding, tRNA was used in a concentration of 1 mg/mL. In a comparative example, signal intensity was measured in the same manner except that the aforementioned comparative example RNA was used in place of the aforementioned example RNA aptamers.
(§2) An analysis of ability to bind to His-tag added HMGB1 was carried out in the same manner as in (2) above of the aforementioned Example 1 except that the aforementioned RNA aptamers were used, and the concentration of the aforementioned His-tag-added HMGB1 was 160 nmol/L. Also, an analysis was carried on the aforementioned 40N as a comparative example in the same manner. FIGS. 12 and 13 show the results.

His-tagged HMGB1 [2] = target: T1, His-tagged HMGB1; experiment: SPR; physiological 150 mM NaCl; conditions: tags: N-terminal His-tag
Description: as §1
The ability of each of the aforementioned RNA aptamers to bind to HMGB1 under physiological conditions was examined. An analysis of binding ability was carried out in the same manner as in (2) above except that the 500 mmol/L NaCl concentration of the aforementioned running buffer was changed so as to conform to the physiology condition of a living body of 150 mmol/L, and the injection time of the aforementioned His-tag-added HMGB1 was 45 sec.

His-tagged MIF = His-tagged MIF (UniProt P14174 P14174:2-115); experiment: SPR; 300 nM His-MIF specificity control
Description: as §1
The ability of each of the aforementioned RNA aptamers to bind to His-tag was examined. An analysis of the aforementioned binding ability was carried out in the same manner as in (2) above except that 300 nmol/L of the aforementioned His-tag-added MIF protein was used in place of the aforementioned His-tag-added HMGB1.

HMGB1 (no His-tag) = HMGB1 (no His-tag) (UniProt P09429 P09429:1-215); experiment: SPR; 1 uM untagged HMGB1, 500 mM NaCl; conditions: tags: none
Description: as §1
The ability of each of the aforementioned RNA aptamers to bind to HMGB1 in which no His-tag was added to the N-terminus was examined. An analysis of the aforementioned binding ability was carried out in the same manner as in (2) above except that 1 μmol/L of the aforementioned HMGB1 was used in place of the aforementioned His-tag-added HGB1 and the injection time of the aforementioned HMGB1 was 60 sec.

His-tagged HMGB1 [3] = target: T1, His-tagged HMGB1; experiment: SPR; 200 nM protein, 150 mM NaCl; above unmodified 40N; conditions: tags: N-terminal His-tag
Description: as §1
An analysis of ability to bind to the aforementioned His-tag-added HMGB1 (manufactured by Sigma) was carried out in the same manner as in (2) above of the aforementioned Example 1 except that the aforementioned fluorinated RNA aptamers were used, the concentration of the aforementioned His-tag-added HMGB1 was 200 nmol/L, the concentration of NaCl in the aforementioned running buffer was 150 mmol/L, and the injection time of the aforementioned His-tag-added HMGB1 was 60 seconds. Also, an analysis was carried out in the same manner on unmodified R8c6_{—}1 that was not fluorinated.

His-tagged HMGB1 [4] = target: T1, His-tagged HMGB1; experiment: SPR; superior to R8c6_1; 635 nM protein; conditions: tags: N-terminal His-tag
Description: as §1
as §2, with “His-tag-added” for “His-tag added”, “used,” for “used, and”, “635 nmol/L, and the injection time of the aforementioned His-tag-added HMGB1 was 60 seconds.” for “160 nmol/L.”, “manner.” for “manner. FIGS. 12 and 13 show the results.”

His-tagged HMGB1 [5] = target: T1, His-tagged HMGB1; experiment: SPR; 200 nM protein, 500 mM NaCl; conditions: tags: N-terminal His-tag
Description: as §1
An analysis of ability to bind to His-tag-added HMGB1 was carried out in the same manner as in (2) above of the aforementioned Example 1 except that the aforementioned fluorinated RNA aptamers were used, the concentration of His-tag-added HMGB1 was 200 nmol/L, and the injection time of the aforementioned His-tag-added HMGB1 was 60 seconds. Also, an analysis was carried out in the same manner on the aforementioned 2′F-40N and unmodified R8c6_{—}1 that was not fluorinated.

Chain of His-tagged MIF (P14174 2-115, one chain of several): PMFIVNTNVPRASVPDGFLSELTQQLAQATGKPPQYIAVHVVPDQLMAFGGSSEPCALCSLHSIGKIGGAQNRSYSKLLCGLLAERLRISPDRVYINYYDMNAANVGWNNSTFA
T1 sequence (P09429 whole entry, one chain of several): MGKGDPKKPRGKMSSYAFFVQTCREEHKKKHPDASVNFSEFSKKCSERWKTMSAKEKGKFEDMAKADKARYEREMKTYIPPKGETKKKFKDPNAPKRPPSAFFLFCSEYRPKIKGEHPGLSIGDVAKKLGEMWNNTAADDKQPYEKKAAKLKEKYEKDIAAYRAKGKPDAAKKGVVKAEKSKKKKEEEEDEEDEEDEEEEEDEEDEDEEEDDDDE
Chain of HMGB1 (no His-tag) (P09429 whole entry, one chain of several): as above

B1: R8c6_1-18-S4 (ssRNA)
RNA: GGGAGUACAGUAAGACACGUAGCACCAGUCGUUUGUCGUGCCUGGACGUGCAGU
binding result (His-tagged HMGB1 [1]): binds

GGGAGUACAGUAAGACACGUAGCACCAGUGUGCCUGGACGUGCAGU (ssRNA) [R8c6_1-18-S6]
binding result (His-tagged HMGB1 [1]): binds

B2: #80 (ssRNA)
RNA: GGGACGCUCACGUACGCUCACAUCUGAAUUUAAGCCACGUAGAACCAGGCCCUCCACGCGUCAGUGCCUGGACGUGCAGU
binding result (His-tagged HMGB1 [2]): binds | binding result (His-tagged MIF): no binding | binding result (HMGB1 (no His-tag)): binds

B3: 2'F-CU-#80 (ssRNA)
RNA: GGGACGCUCACGUACGCUCACAUCUGAAUUUAAGCCACGUAGAACCAGGCCCUCCACGCGUCAGUGCCUGGACGUGCAGU
modifications: 2'-F on all C and U
binding result (His-tagged HMGB1 [3]): binds

B4: 2'F-C-#80 (ssRNA)
RNA: GGGACGCUCACGUACGCUCACAUCUGAAUUUAAGCCACGUAGAACCAGGCCCUCCACGCGUCAGUGCCUGGACGUGCAGU
modifications: 2'-F on all C
binding result (His-tagged HMGB1 [3]): binds

B5: 2'F-U-#80 (ssRNA)
RNA: GGGACGCUCACGUACGCUCACAUCUGAAUUUAAGCCACGUAGAACCAGGCCCUCCACGCGUCAGUGCCUGGACGUGCAGU
modifications: 2'-F on all U
binding result (His-tagged HMGB1 [3]): binds

B6: #08 (ssRNA)
RNA: GGGACGCUCACGUACGCUCAAGUCCCUUGACACGUCCGUUUUCUAACUGGAAUAGAGGCCUCAGUGCCUGGACGUGCAGU
binding result (His-tagged HMGB1 [2]): binds | binding result (His-tagged MIF): no binding | binding result (HMGB1 (no His-tag)): binds

GGGCACGUAGCACCAGUCUGACGUUUGUCGUCAGUGCCUGGACGUGCAGU (ssRNA) [R8c6_1-30]
binding result (His-tagged HMGB1 [1]): binds

B7: R8c6_1-21 (ssRNA)
RNA: GGGACAGUAAGACACGUAGCACCAGUCUGACGUUUGUCGUCAGUGCCUGGACGUGCAGU
binding result (His-tagged HMGB1 [4]): binds

GGGUAGCACCAGUCUGACGUUUGUCGUCAGUGCCUGGACGUGCACC (ssRNA) [R8c6_1-34CC]
binding result (His-tagged HMGB1 [1]): binds

B8: R8c6_1-18 (ssRNA)
RNA: GGGAGUACAGUAAGACACGUAGCACCAGUCUGACGUUUGUCGUCAGUGCCUGGACGUGCAGU
binding result (His-tagged HMGB1 [4]): binds

B9: #34 (ssRNA)
RNA: GGGACGCUCACGUACGCUCAAUUCACCUCAGCAUGUCCGCUUGUGACGAUGGAGGCACCUUCAGUGCCUGGACGUGCAGU
binding result (His-tagged HMGB1 [2]): binds | binding result (His-tagged MIF): no binding | binding result (HMGB1 (no His-tag)): binds

B10: 2'F-CU-R4_9068 (ssRNA)
RNA: GGGACGCUCACGUACGCUCAUGAUAUUUAAAUUUGGCCGCGUUUAAAACAUCCCCUACGAUCAGUGCCUGGACGUGCAGU
modifications: 2'-F on all C and U
binding result (His-tagged HMGB1 [3]): binds

B11: 2'F-U-R4_9068 (ssRNA)
RNA: GGGACGCUCACGUACGCUCAUGAUAUUUAAAUUUGGCCGCGUUUAAAACAUCCCCUACGAUCAGUGCCUGGACGUGCAGU
modifications: 2'-F on all U
binding result (His-tagged HMGB1 [3]): binds

B12: 2'F-C-R4_9068 (ssRNA)
RNA: GGGACGCUCACGUACGCUCAUGAUAUUUAAAUUUGGCCGCGUUUAAAACAUCCCCUACGAUCAGUGCCUGGACGUGCAGU
modifications: 2'-F on all C
binding result (His-tagged HMGB1 [3]): binds

B13: R8c6_1-20 (ssRNA)
RNA: GGGUACAGUAAGACACGUAGCACCAGUCUGACGUUUGUCGUCAGUGCCUGGACGUGCAGU
binding result (His-tagged HMGB1 [4]): binds

B14: 2'F-R8c6_1-1 (ssRNA)
RNA: GGGACGCUCACGUACGCUCAGAGUACAGUAAGACACGUAGCACCAGUCUGACGUUUGUCGUCAGUGCCUGGACGUGCAG
modifications: 2'-F on all C and U
binding result (His-tagged HMGB1 [5]): binds

B15: #06 (ssRNA)
RNA: GGGACGCUCACGUACGCUCAUACACUGCACGCUCCGCUUUGAACAUCAAUGGAGGCCCUGUCAGUGCCUGGACGUGCAGU
binding result (His-tagged HMGB1 [2]): binds | binding result (His-tagged MIF): no binding | binding result (HMGB1 (no His-tag)): binds

B16: 2'F-U-#06 (ssRNA)
RNA: GGGACGCUCACGUACGCUCAUACACUGCACGCUCCGCUUUGAACAUCAAUGGAGGCCCUGUCAGUGCCUGGACGUGCAGU
modifications: 2'-F on all U
binding result (His-tagged HMGB1 [3]): binds

B17: 2'F-CU-#06 (ssRNA)
RNA: GGGACGCUCACGUACGCUCAUACACUGCACGCUCCGCUUUGAACAUCAAUGGAGGCCCUGUCAGUGCCUGGACGUGCAGU
modifications: 2'-F on all C and U
binding result (His-tagged HMGB1 [3]): binds

B18: 2'F-C-#06 (ssRNA)
RNA: GGGACGCUCACGUACGCUCAUACACUGCACGCUCCGCUUUGAACAUCAAUGGAGGCCCUGUCAGUGCCUGGACGUGCAGU
modifications: 2'-F on all C
binding result (His-tagged HMGB1 [3]): binds

B19: #10 (ssRNA)
RNA: GGGACGCUCACGUACGCUCAUAGUCAAGGUGAAAACCCCCAUAGAGACUUCAGUGCCUGGACGUGCAGU
binding result (His-tagged HMGB1 [2]): binds | binding result (His-tagged MIF): no binding | binding result (HMGB1 (no His-tag)): binds

B20: #36 (ssRNA)
RNA: GGGACGCUCACGUACGCUCACCUAGCACGUCCGUUUCUGGAUCUGUCAGUUAGAGGCCUAUCAGUGCCUGGACGUGCAGU
binding result (His-tagged HMGB1 [2]): binds | binding result (His-tagged MIF): no binding | binding result (HMGB1 (no His-tag)): binds

B21: #47 (ssRNA)
RNA: GGGACGCUCACGUACGCUCAAAAAACUACUGCCGAACCGUAAGACACGUAGAACCAGGCAUCAGUGCCUGGACGUGCAGU
binding result (His-tagged HMGB1 [2]): binds | binding result (His-tagged MIF): no binding | binding result (HMGB1 (no His-tag)): binds

B22: R8c6_1-15 (ssRNA)
RNA: GGGCAGAGUACAGUAAGACACGUAGCACCAGUCUGACGUUUGUCGUCAGUGCCUGGACGUGCAGU
binding result (His-tagged HMGB1 [4]): binds
